± gives the uncertainty stated by the source.

The data set in a line: self-splicing fitness, log relative to wild type (ln ratio); higher = more splicing; Tetrahymena group I intron in knt gene, E. coli kanamycin selection, DiMSum; sequences stand for … in CUCUCU…GGAGGGAAAAGUUAUCAGGCAUGCACCUGGUAGCUAGUCUUUAAACCAAUAGAUUGCAUCGGUUUAAAAGGCAAGACCGUCAAAUUGCGGGAAAGGGGUCAACAGCCGUUCAGUACCAAGUCUCAGGGGAAACUUUGAGAUGGCCUUGCAAAGGGUAUGGUAAUAAGCUGACGGACAUGGUCCUAACCACGCAGCCAAGUCCUAAGUCAACAGAUCUUCUGUUGAUAUGGAUGCAGUUCACAGACUAAAUGUCGGUCGGGGAAGAUGUAUUCUUCUCAUAAGAUAUAGUCGGACCUCUCCUUAAUGGGAGCUAGCGGAUGAAGUGAUGCAACACUGGAGCCGCUGGGAACUAAUUUGUAUGCGAAAGUAUAUUGAUUAGUUUUGGAGUACUCGUGGUCG
In a few lines: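 Fitness was computed with DiMSum as the error-weighted combination of replicate fold changes, kanamycin versus none, each normalised to wild type. The library randomised all eight intron nucleotides of the P1ex region, with the intron placed in the knt kanamycin-resistance gene on pET-22b(+) in E. coli BL21(DE3). Six replicate transformations were grown overnight at 37°C or 30°C on LB agar with or without 25 μg/mL kanamycin, plus 100 μg/mL carbenicillin, 50 μM IPTG and 0.2% rhamnose. Pooled colonies were amplicon-sequenced on an Illumina HiSeq 2500.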

Consider GAAAAGCAAUAUUACGGGGU, for which the “self-splicing fitness (ln)” value is -3.91 ± 0.26 (30 °C) and -2.32 ± 0.23 (37 °C).
As for AGGGAGCAAUAUUACGAAUC, the “self-splicing fitness (ln)” value (37 °C) is -2.43 ± 0.29.
With GACCAGCAAUAUUACGUGAA, the “self-splicing fitness (ln)” value is, setting by setting: (30 °C) -0.0938 ± 0.063; (37 °C) 0.524 ± 0.089.
In the case of CUCCAGCAAUAUUACGUCAG, the “self-splicing fitness (ln)” value is -1.2 ± 0.067 (30 °C) and -0.906 ± 0.098 (37 °C).
On to CUUGAGCAAUAUUACGAAUA, for which the “self-splicing fitness (ln)” value (30 °C) was -3.26 ± 0.48.
ACAGAGCAAUAUUACGGAUC: the “self-splicing fitness (ln)” value was -3.24 ± 0.4 (30 °C) and -1.85 ± 0.26 (37 °C).
For the sequence CAAAAGCAAUAUUACGUCUG, the “self-splicing fitness (ln)” value runs as follows: (30 °C) -0.838 ± 0.042; (37 °C) -0.0271 ± 0.052.
On to CGGGAGCAAUAUUACGUCAU, for which the “self-splicing fitness (ln)” value (30 °C) was -3.09 ± 0.49.
As to UGGCAGCAAUAUUACGAAAU, the “self-splicing fitness (ln)” value is, setting by setting: (30 °C) -3.14 ± 0.29; (37 °C) -0.617 ± 0.19.
In the same order, the values of AUUGAGCAAUAUUACGUACG are -3.25 ± 0.29 and -1.53 ± 0.26.
In the same order, the values of GAACAGCAAUAUUACGCACG are -1.38 ± 0.18 and 0.123 ± 0.13.
In the same order, the values of CAGCAGCAAUAUUACGGGAG are -1.2 ± 0.061 and -0.908 ± 0.082.
For GGGGAGCAAUAUUACGGGCA, the “self-splicing fitness (ln)” value (30 °C) is -2.87 ± 0.34 and the “self-splicing fitness (ln)” value (37 °C) was -1.47 ± 0.26.
In the same order, the values of AUUUAGCAAUAUUACGACUG are -2 ± 0.17 and -1.41 ± 0.16.
Turning to UAUUAGCAAUAUUACGAGAC, the “self-splicing fitness (ln)” value (30 °C) is -2.57 ± 0.47.
With CAGCAGCAAUAUUACGGUUC, the “self-splicing fitness (ln)” value (30 °C) was -2.92 ± 0.26 and the “self-splicing fitness (ln)” value (37 °C) was -1.5 ± 0.17.
In the same order, the values of UAUGAGCAAUAUUACGUGUU are -3.34 ± 0.17 and -2.99 ± 0.18.
In the same order, the values of AUUAAGCAAUAUUACGGUAC are -3.84 ± 0.47 and -1.6 ± 0.2.
In the same order, the values of AUACAGCAAUAUUACGCAGU are -2.88 ± 0.23 and -2.74 ± 0.22.
As to UACGAGCAAUAUUACGAAGU, the “self-splicing fitness (ln)” value is -4.33 ± 0.39 (30 °C) and -2.41 ± 0.24 (37 °C).
Take AGGCAGCAAUAUUACGGCAC: the “self-splicing fitness (ln)” value (30 °C) was -0.991 ± 0.085 and the “self-splicing fitness (ln)” value (37 °C) is -0.533 ± 0.13.
In the same order, the values of ACCGAGCAAUAUUACGGACA are -1.25 ± 0.15 and -0.523 ± 0.15.
In the same order, the values of CUGUAGCAAUAUUACGACUA are -1.74 ± 0.42 and -0.817 ± 0.3.
Take AACCAGCAAUAUUACGGUAU: the “self-splicing fitness (ln)” value was -2 ± 0.071 (30 °C) and -0.457 ± 0.08 (37 °C).
In the same order, the values of UCUAAGCAAUAUUACGCACU are -3.04 ± 0.24 and -1.52 ± 0.17.
In the same order, the values of CCAAAGCAAUAUUACGAGUG are -0.346 ± 0.039 and -0.144 ± 0.058.
CUCCAGCAAUAUUACGCUUG: the “self-splicing fitness (ln)” value is -3.52 ± 0.19 (30 °C) and -2.96 ± 0.21 (37 °C).
In the same order, the values of CGCGAGCAAUAUUACGGGAG are -3.66 ± 0.19 and -2.91 ± 0.22.
UUCUAGCAAUAUUACGGGUC: the “self-splicing fitness (ln)” value by setting is: (30 °C) -3.23 ± 0.32; (37 °C) -1.94 ± 0.23.
As to AGUUAGCAAUAUUACGUAGG, under “30 °C”, the “self-splicing fitness (ln)” value was -4.63 ± 0.32.
For CGGUAGCAAUAUUACGUUGU, the “self-splicing fitness (ln)” value runs as follows: (30 °C) -4.62 ± 0.27; (37 °C) -2.55 ± 0.15.
In the same order, the values of UGAAAGCAAUAUUACGACGG are -0.788 ± 0.1 and -0.64 ± 0.1.
As for GGCGAGCAAUAUUACGGGCA, the “self-splicing fitness (ln)” value was -0.695 ± 0.15 (30 °C) and -0.194 ± 0.15 (37 °C).
For ACGGAGCAAUAUUACGGGUG, the “self-splicing fitness (ln)” value reads like this: (30 °C) -3.61 ± 0.18; (37 °C) -3.18 ± 0.22.
In the same order, the values of AAUAAGCAAUAUUACGCACU are 0.285 ± 0.075 and -0.118 ± 0.082.
AAUGAGCAAUAUUACGGGAU: the “self-splicing fitness (ln)” value reads like this: (30 °C) -4.32 ± 0.28; (37 °C) -3.09 ± 0.29.
Regarding GGGCAGCAAUAUUACGCUCU, the “self-splicing fitness (ln)” value (30 °C) is -3.55 ± 0.44.
For UAUUAGCAAUAUUACGAGUA, the “self-splicing fitness (ln)” value is -0.732 ± 0.25 (30 °C) and -0.0897 ± 0.24 (37 °C).
In the same order, the values of CAGCAGCAAUAUUACGCAUG are -3.11 ± 0.16 and -2.42 ± 0.16.
GUGUAGCAAUAUUACGCCAU: the “self-splicing fitness (ln)” value is -3.15 ± 0.29 (30 °C) and -1.51 ± 0.22 (37 °C).
